± gives the standard deviation of the averaged measurements.
Assays:
[1] = test system: VchCAST RNA-guided transposition machinery (E. coli BL21(DE3) host, lacZ target); test: relative integration efficiency (T-RL orientation) vs wild-type transposon end (log2 (normalized fold change)); transposon end mutated: right end (5 bp flank + 75 bp right end); higher = more efficient transposition
Procedure, shortened: (§1)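 Barcoded pools of 1549 left-end or 1849 right-end transposon variants were cloned into a pUC57 mini-transposon donor. Each pool was co-transformed with a T7-driven effector plasmid (CRISPR array, tniQ-cas8-cas7-cas6, tnsA-tnsB-tnsC) into E. coli BL21(DE3) and plated with 0.1 mM IPTG at 37°C for 18 h. Input plasmids and genomic integration junctions were PCR-amplified and Illumina-sequenced, with two biological output replicates and four wild-type barcodes as reference. Relative integration efficiency is output/input barcode abundance fold change, normalised to wild-type barcodes and log-transformed.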

[2] = test system: VchCAST RNA-guided transposition machinery (E. coli BL21(DE3) host, lacZ target); test: relative integration efficiency (T-LR orientation) vs wild-type transposon end (log2 (normalized fold change)); transposon end mutated: right end (5 bp flank + 75 bp right end); higher = more efficient transposition
Procedure, shortened: as §1

Sequence | relative integration efficiency (log2) [1] | relative integration efficiency (log2) [2]
ACATTTGTTGATACAACCATAAAATGATAATTACCCCCATAAATTGATAATGATGACACCGAATTTAACTATAACGCTCTGATCATAGTCAGACCAACATTGCTACGACCCGTATTCGCACCGACAC | -1.63 ± 0.46 | 2.16 ± 0.067
ACATTTGTTGATACAACCATAAAATGATAATTACCCCCATAAATTGATAATTATCACACCCCATTTAACTATAACGCTCTGATCATAGTCAGACCAACATTGCTACGACCCGTATTCGCACCGACAC | -0.917 ± 0.1 | 2.089 ± 0.0067
ACATTTGTTGATACAACCATAAAATGATAATTACCCCCATAAATTGATAATTATCCCACCCAATTTAACTATAACGCTCTGATCATAGTCAGACCAACATTGCTACGACCCGTATTCGCACCGACAC | -1.15 ± 0.18 | 2.06 ± 0.12
ACATTTGTTGATACAACCATAAAATGATAATTACCCCCATAAATTGATAATTATCCCACCCCATTTAACTATAACGCTCTGATCATAGTCAGACCAACATTGCTACGACCCGTATTCGCACCGACAC | -1.32 ± 0.25 | 1.82 ± 0.11
ACATTTGTTGATACAACCATAAAATGATAATTACCCCCATAAATTGATAATTGTGACACCGAATTTAACTATAACGCTCTGATCATAGTCAGACCAACATTGCTACGACCCGTATTCGCACCGACAC | -1.79 ± 0.38 | 1.94 ± 0.097
ACATTTGTTGATACAACCATAAAATGATAATTACCCCCATCAATTGATAATTATCACACCCAATTTAACTATAACGCTCTGATCATAGTCAGACCAACATTGCTACGACCCGTATTCGCACCGACAC | -2.23 ± 0.41 | 0.506 ± 0.048
ACATTTGTTGATACAACCATAAAATGATAATTACCCCCATCAATTGATAATTATCACACCCCATTTAACTATAACGCTCTGATCATAGTCAGACCAACATTGCTACGACCCGTATTCGCACCGACAC | -2.27 ± 0.37 | 0.526 ± 0.33
ACATTTGTTGATACAACCATAAAATGATAATTACCCCCATCAATTGATAATTATCCCACCCAATTTAACTATAACGCTCTGATCATAGTCAGACCAACATTGCTACGACCCGTATTCGCACCGACAC | -2.38 ± 0.22 | 0.511 ± 0.036
ACATTTGTTGATACAACCATAAAATGATAATTACCCCCATCAATTGATAATTATCCCACCCCATTTAACTATAACGCTCTGATCATAGTCAGACCAACATTGCTACGACCCGTATTCGCACCGACAC | -2.78 ± 0.51 | 0.417 ± 0.32
ACATTTGTTGATACAACCATAAAATGATAATTACTCTGACACCCATAAATTGATAATTATCACACCCATAAATTGATATTGCTCATAGTCAGACCAACATTGCTACGACCCGTATTCGCACCGACAC | -2.73 ± 0.083 | 0.8247 ± 0.0022
ACATTTGTTGATACAACCATAAAATGATAATTACTCTGACACCCATAAATTGATAATTATCAGTGGGTATTTAACTATAACGTCATAGTCAGACCAACATTGCTACGACCCGTATTCGCACCGACAC | -2.06 ± 0.27 | 1.33 ± 0.1
ACATTTGTTGATACAACCATAAAATGATAATTACTCTGATCACCCATAAATTGATAATTATCACACCCATAAATTGATATTGCCATAGTCAGACCAACATTGCTACGACCCGTATTCGCACCGACAC | -4.39 ± 0.071 | 0.359 ± 0.11
ACATTTGTTGATACAACCATAAAATGATAATTACTCTGATCACCCATAAATTGATAATTATCAGTGGGTATTTAACTATAACGCATAGTCAGACCAACATTGCTACGACCCGTATTCGCACCGACAC | -2.48 ± 0.42 | 0.977 ± 0.086
ACATTTGTTGATACAACCATAAAATGATAATTACTCTGATCATAGTCACACCCATAAATTGATAATTATCACACCCATAAATTGATATTGCGACCAACATTGCTACGACCCGTATTCGCACCGACAC | -4.9525 ± 0.00028 | -1.68 ± 0.39
ACATTTGTTGATACAACCATAAAATGATAATTACTCTGATCATAGTCACACCCATAAATTGATAATTATCAGTGGGTATTTAACTATAACGGACCAACATTGCTACGACCCGTATTCGCACCGACAC | -3.34 ± 0.27 | -0.9229 ± 0.0035
ACATTTGTTGATACAACCATAAAATGATAATTACTCTGATCATAGTCAGACACCCATAAATTGATAATTATCACACCCATAAATTGATATTGCCCAACATTGCTACGACCCGTATTCGCACCGACAC | -3.73 ± 0.17 | -0.838 ± 0.091
ACATTTGTTGATACAACCATAAAATGATAATTACTCTGATCATAGTCAGACACCCATAAATTGATAATTATCAGTGGGTATTTAACTATAACGCCAACATTGCTACGACCCGTATTCGCACCGACAC | -1.71 ± 0.23 | 1.66 ± 0.32
ACATTTGTTGATACAACCATAAAATGATAATTACTCTGATCATAGTCAGACCAACATTCACCCATAAATTGATAATTATCACACCCATAAATTGATATTGCGCTACGACCCGTATTCGCACCGACAC | -4.53 ± 0.13 | -2.04 ± 0.32

Sequence | relative integration efficiency (log2) [1] | relative integration efficiency (log2) [2]
ACATTTGTTGATACAACCATAAAATGATAATTACTCTGATCATAGTCAGACCAACATTCACCCATAAATTGATAATTATCAGTGGGTATTTAACTATAACGGCTACGACCCGTATTCGCACCGACAC | -3.1 ± 0.26 | -0.137 ± 0.076
ACATTTGTTGATACAACCATAAAATGATAATTACTCTGATCATAGTCAGACCAACATTGCTACCACCCATAAATTGATAATTATCACACCCATAAATTGATATTGCGACCCGTATTCGCACCGACAC | -3.63 ± 0.078 | -0.553 ± 0.016
ACATTTGTTGATACAACCATAAAATGATAATTACTCTGATCATAGTCAGACCAACATTGCTACCACCCATAAATTGATAATTATCAGTGGGTATTTAACTATAACGGACCCGTATTCGCACCGACAC | -1.54 ± 0.53 | 1.601 ± 0.014
ACATTTGTTGATACAACCATAAAATGATAATTACTCTGATCATAGTCAGACCAACATTGCTACGACCCCACCCATAAATTGATAATTATCACACCCATAAATTGATATTGCGTATTCGCACCGACAC | -3.23 ± 0.04 | -0.249 ± 0.18
ACATTTGTTGATACAACCATAAAATGATAATTACTCTGATCATAGTCAGACCAACATTGCTACGACCCCACCCATAAATTGATAATTATCAGTGGGTATTTAACTATAACGGTATTCGCACCGACAC | -2.938 ± 0.018 | -0.154 ± 0.0093
ACATTTGTTGATACAACCATAAAATGATAATTACTCTGATCATAGTCAGACCAACATTGCTACGACCCGTATTCACCCATAAATTGATAATTATCACACCCATAAATTGATATTGCCGCACCGACAC | -3.12 ± 0.47 | 0.261 ± 0.085
ACATTTGTTGATACAACCATAAAATGATAATTACTCTGATCATAGTCAGACCAACATTGCTACGACCCGTATTCACCCATAAATTGATAATTATCAGTGGGTATTTAACTATAACGCGCACCGACAC | -2.15 ± 0.4 | 1.08 ± 0.33
ACATTTGTTGATACAACCATAAAATGATAATTACTCTGATCATAGTCAGACCAACATTGCTACGACCCGTATTCGCACCACCCATAAATTGATAATTATCACACCCATAAATTGATATTGCCGACAC | -2.767 ± 0.019 | -0.66 ± 0.24
ACATTTGTTGATACAACCATAAAATGATAATTACTCTGATCATAGTCAGACCAACATTGCTACGACCCGTATTCGCACCACCCATAAATTGATAATTATCAGTGGGTATTTAACTATAACGCGACAC | -2.38 ± 0.56 | 1.01 ± 0.035
ACATTTGTTGATACAACCATAAAATGATAATTACTCTGATCATAGTCAGACCAACATTGCTACGACCCGTATTCGCACCGACACAACGACTATATTTACACCCATAAATTGATAATTATCAGTGGGT | -1.358 ± 0.0083 | 1.81 ± 0.28
ACATTTGTTGATACAACCATAAAATGATAATTACTCTGATCATAGTCAGACCAACATTGCTACGACCCGTATTCGCACCGACACAACGACTATATTTATGGGTCACCCATAAATTGATAATTATCAG | -1.52 ± 0.14 | 1.36 ± 0.37
ACATTTGTTGATACAACCATAAAATGATAATTACTCTGATCATAGTCAGACCAACATTGCTACGACCCGTATTCGCACCGACACAACGACTATCACCCATAAATTGATAATTATCAGTGGGTATTTA | -1.16 ± 0.15 | 2.166 ± 0.019
ACATTTGTTGATACAACCATAAAATGATAATTACTCTGATCATAGTCAGACCAACATTGCTACGACCCGTATTCGCACCGACACAACGCACCCATAAATTGATAATTATCAGTGGGTATTTAACTAT | -1.4 ± 0.054 | 1.8 ± 0.1
ACATTTGTTGATACAACCATAAAATGATAATTACTCTGATCATAGTCAGACCAACATTGCTACGACCCGTATTCGCACCGACACACCCATAAATTGATAATTATCACACCCATAAATTGATATTGCC | -2.59 ± 0.21 | 0.795 ± 0.3
ACATTTGTTGATACAACCATAAAATGATAATTACTCTGATCATAGTCAGACCAACATTGCTACGACCCGTATTCGCACCGACACACCCATAAATTGATAATTATCAGTGGGTATTTAACTATAACGC | -1.05 ± 0.17 | 2.24 ± 0.21
ACATTTGTTGATACAACCATAAAATGATAATTACTCTGATCATAGTCAGACCACACCCATAAATTGATAATTATCACACCCATAAATTGATATTGCACATTGCTACGACCCGTATTCGCACCGACAC | -4.6 ± 0.057 | -2.36 ± 0.32
ACATTTGTTGATACAACCATAAAATGATAATTACTCTGATCATAGTCAGACCACACCCATAAATTGATAATTATCAGTGGGTATTTAACTATAACGACATTGCTACGACCCGTATTCGCACCGACAC | -0.22 ± 0.33 | 2.27 ± 0.15

— the supplement of paper PMC10201428
